Measured values taken from article PMC11445558, “The molecular dissection of TRIM25’s RNA-binding mechanism provides key insights into its antiviral activity” (Nature Communications, 2024).

Tests used:
[1] = target: T1, TRIM25 CC-PRY/SPRY (Homo sapiens, UniProt Q14258 189-630); assay: ITC; conditions: mean of replicates 15;29;20;9; ITC: 20 mM MES pH 6.5, 75 mM NaCl, 0.5 mM TCEP, 20 C; protein NMR: 20 mM sodium phosphate pH 6.5, 150 mM NaCl, 2 mM TCEP, 293 K
[2] = target: T2, TRIM25 CC (Homo sapiens, UniProt Q14258 189-379); assay: ITC; conditions: mean of replicates 59;61;63; ITC: 20 mM MES pH 6.5, 75 mM NaCl, 0.5 mM TCEP, 20 C; protein NMR: 20 mM sodium phosphate pH 6.5, 150 mM NaCl, 2 mM TCEP, 293 K
[3] = target: T3, TRIM25 PRY/SPRY (Homo sapiens, UniProt Q14258 439-630); assay: NMR; CSPs in binding site 2 only; ITC: 20 mM MES pH 6.5, 75 mM NaCl, 0.5 mM TCEP, 20 C; protein NMR: 20 mM sodium phosphate pH 6.5, 150 mM NaCl, 2 mM TCEP, 293 K; conditions: protein: recombinant; tags: His-Trx, cleaved (3C); chain copies: 3; hairpin
T3 sequence (Q14258 439-630): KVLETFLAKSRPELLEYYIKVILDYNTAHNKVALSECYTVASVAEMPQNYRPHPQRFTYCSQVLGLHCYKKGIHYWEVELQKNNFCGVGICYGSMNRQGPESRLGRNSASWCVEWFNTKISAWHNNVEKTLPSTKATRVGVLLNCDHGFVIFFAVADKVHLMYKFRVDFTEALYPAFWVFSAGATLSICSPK

[4] = target: the molecule itself; assay: SEC-MALS; 50 µl injected onto Superdex 200 5/150 GL in 20 mM MES, pH 6.5, 75 mM NaCl, 0.5 mM TCEP, 0.3 ml/min, room temperature
[5] = target: T1, TRIM25 CC-PRY/SPRY; assay: ITC; KD1 of two sites, mean of replicates 0.25;0.03;0.02; ITC: 20 mM MES pH 6.5, 75 mM NaCl, 0.5 mM TCEP, 20 C; protein NMR: 20 mM sodium phosphate pH 6.5, 150 mM NaCl, 2 mM TCEP, 293 K; conditions: protein: recombinant; tags: His-Trx, cleaved (3C); chain copies: 2; hairpin
Target sequence in this assay (Q14258 189-630): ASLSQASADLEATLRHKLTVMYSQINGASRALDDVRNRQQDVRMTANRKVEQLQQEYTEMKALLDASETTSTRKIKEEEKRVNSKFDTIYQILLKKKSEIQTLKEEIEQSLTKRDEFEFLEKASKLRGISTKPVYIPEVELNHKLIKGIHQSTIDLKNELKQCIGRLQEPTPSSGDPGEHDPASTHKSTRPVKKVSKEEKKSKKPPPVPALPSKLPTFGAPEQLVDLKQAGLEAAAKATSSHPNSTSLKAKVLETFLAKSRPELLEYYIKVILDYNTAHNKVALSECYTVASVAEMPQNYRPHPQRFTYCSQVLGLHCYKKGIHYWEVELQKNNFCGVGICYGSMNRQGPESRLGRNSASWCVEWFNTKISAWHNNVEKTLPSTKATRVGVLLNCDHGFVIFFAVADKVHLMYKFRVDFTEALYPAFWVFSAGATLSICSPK

[6] = target: T3, TRIM25 PRY/SPRY; assay: ITC; ITC: 20 mM MES pH 6.5, 75 mM NaCl, 0.5 mM TCEP, 20 C; protein NMR: 20 mM sodium phosphate pH 6.5, 150 mM NaCl, 2 mM TCEP, 293 K; conditions: protein: recombinant; tags: His-Trx, cleaved (3C); chain copies: 3; stem-loop (called 28-mer duplex RNA)
[7] = target: T3, TRIM25 PRY/SPRY; assay: NMR; CSPs in binding site 1 only; ITC: 20 mM MES pH 6.5, 75 mM NaCl, 0.5 mM TCEP, 20 C; protein NMR: 20 mM sodium phosphate pH 6.5, 150 mM NaCl, 2 mM TCEP, 293 K; conditions: protein: recombinant; tags: His-Trx, cleaved (3C); single-stranded
[8] = target: T1, TRIM25 CC-PRY/SPRY; assay: ITC; KD1 of two sites; ITC: 20 mM MES pH 6.5, 75 mM NaCl, 0.5 mM TCEP, 20 C; protein NMR: 20 mM sodium phosphate pH 6.5, 150 mM NaCl, 2 mM TCEP, 293 K; conditions: protein: recombinant; tags: His-Trx, cleaved (3C); chain copies: 2; hairpin
Target sequence in this assay (Q14258 189-630): as above

[9] = target: T4, TRIM25 CC-PRY/SPRY-m9 (Homo sapiens, UniProt Q14258 189-630, K283A;K285A;K320E;Y323E;H331E;K332E;H505E;K508E;K602E); assay: ITC; 300 uM RNA, 30 uM protein; ITC: 20 mM MES pH 6.5, 75 mM NaCl, 0.5 mM TCEP, 20 C; protein NMR: 20 mM sodium phosphate pH 6.5, 150 mM NaCl, 2 mM TCEP, 293 K; conditions: protein: recombinant; tags: His-Trx, cleaved (3C); chain copies: 2; hairpin
[10] = target: T1, TRIM25 CC-PRY/SPRY; assay: ITC; ITC: 20 mM MES pH 6.5, 75 mM NaCl, 0.5 mM TCEP, 20 C; protein NMR: 20 mM sodium phosphate pH 6.5, 150 mM NaCl, 2 mM TCEP, 293 K; conditions: protein: recombinant, tags: His-Trx, cleaved (3C), chain copies: 2
Target sequence in this assay (Q14258 189-630): as above

[11] = target: T2, TRIM25 CC; assay: as above; conditions: protein: recombinant; tags: His-Trx, cleaved (3C); chain copies: 2; hairpin
[12] = target: T4, TRIM25 CC-PRY/SPRY-m9; assay: ITC; 200 uM RNA, 20 uM protein; ITC: 20 mM MES pH 6.5, 75 mM NaCl, 0.5 mM TCEP, 20 C; protein NMR: 20 mM sodium phosphate pH 6.5, 150 mM NaCl, 2 mM TCEP, 293 K; conditions: protein: recombinant; tags: His-Trx, cleaved (3C); chain copies: 2; hairpin
[13] = target: TRIM25 CC-m4 (Homo sapiens, UniProt Q14258 189-379, K320E;Y323E;H331E;K332E); assay: ITC; 400 uM RNA, 50 uM protein; ITC: 20 mM MES pH 6.5, 75 mM NaCl, 0.5 mM TCEP, 20 C; protein NMR: 20 mM sodium phosphate pH 6.5, 150 mM NaCl, 2 mM TCEP, 293 K; conditions: protein: recombinant; tags: His-Trx, cleaved (3C); chain copies: 2; hairpin
[14] = target: TRIM25 PRY/SPRY-m3 (Homo sapiens, UniProt Q14258 439-630, H505E;K508E;K602E); assay: as above; conditions: protein: recombinant; tags: His-Trx, cleaved (3C); chain copies: 3; hairpin
Chain of TRIM25 PRY/SPRY-m3 (Q14258 439-630 H505E/K508E/K602E): as the sequence (Q14258 439-630) above, with H67E, K70E, K164E counted along it

[15] = target: TRIM25 CC-m2 (Homo sapiens, UniProt Q14258 189-379, K283A;K285A); assay: ITC; enthalpy reduced about 10-fold; ITC: 20 mM MES pH 6.5, 75 mM NaCl, 0.5 mM TCEP, 20 C; protein NMR: 20 mM sodium phosphate pH 6.5, 150 mM NaCl, 2 mM TCEP, 293 K; conditions: protein: recombinant; tags: His-Trx, cleaved (3C); chain copies: 2; hairpin
[16] = target: T3, TRIM25 PRY/SPRY; assay: ITC; Supplementary Table 1 first row (probably pre-let-7) reads 0.76-0.97 uM; ITC: 20 mM MES pH 6.5, 75 mM NaCl, 0.5 mM TCEP, 20 C; protein NMR: 20 mM sodium phosphate pH 6.5, 150 mM NaCl, 2 mM TCEP, 293 K; conditions: protein: recombinant; tags: His-Trx, cleaved (3C); chain copies: 3; hairpin
[17] = target: T1, TRIM25 CC-PRY/SPRY; assay: ITC; KD1 of two sites, mean of replicates 0.015;0.016;0.011; ITC: 20 mM MES pH 6.5, 75 mM NaCl, 0.5 mM TCEP, 20 C; protein NMR: 20 mM sodium phosphate pH 6.5, 150 mM NaCl, 2 mM TCEP, 293 K; conditions: protein: recombinant; tags: His-Trx, cleaved (3C); chain copies: 2; hairpin with bulge
Target sequence in this assay (Q14258 189-630): as the sequence (Q14258 189-630) above

[18] = target: T3, TRIM25 PRY/SPRY; assay: ITC; mean of replicates 0.3;0.7;0.3;0.2;0.6; DENV-SL in cell; ITC: 20 mM MES pH 6.5, 75 mM NaCl, 0.5 mM TCEP, 20 C; protein NMR: 20 mM sodium phosphate pH 6.5, 150 mM NaCl, 2 mM TCEP, 293 K; conditions: protein: recombinant; tags: His-Trx, cleaved (3C); chain copies: 3; hairpin with bulge

Lnczc3h7a loop
Kd [1]: 18000 nM | Kd [2]: 61000 nM

GUAUAGUUCAACUAUAC (structured_RNA) [pre-let-7 stem (stem-fusion)]
binding result [3]: binds

B1: TRIM25 CC (aa 189–379) (domain or fragment, human, UniProt Q14258 189-379, looked up)
chain: ASLSQASADLEATLRHKLTVMYSQINGASRALDDVRNRQQDVRMTANRKVEQLQQEYTEMKALLDASETTSTRKIKEEEKRVNSKFDTIYQILLKKKSEIQTLKEEIEQSLTKRDEFEFLEKASKLRGISTKPVYIPEVELNHKLIKGIHQSTIDLKNELKQCIGRLQEPTPSSGDPGEHDPASTHKSTRP
notes: also called CC domain; coiled-coil (CC) dimerisation domain
binding result [4]: binds

B2: TRIM25 CC-m4 (domain or fragment, human, UniProt Q14258 189-379, looked up)
chain: ASLSQASADLEATLRHKLTVMYSQINGASRALDDVRNRQQDVRMTANRKVEQLQQEYTEMKALLDASETTSTRKIKEEEKRVNSKFDTIYQILLKKKSEIQTLKEEIEQSLTKRDEFEFLEKASKLRGISTEPVEIPEVELNEELIKGIHQSTIDLKNELKQCIGRLQEPTPSSGDPGEHDPASTHKSTRP
binding result [4]: binds

B3: TRIM25 CC-m2 (domain or fragment, human, UniProt Q14258 189-379, looked up)
chain: ASLSQASADLEATLRHKLTVMYSQINGASRALDDVRNRQQDVRMTANRKVEQLQQEYTEMKALLDASETTSTRKIKEEEKRVNSKFDTIYQILLAKASEIQTLKEEIEQSLTKRDEFEFLEKASKLRGISTKPVYIPEVELNHKLIKGIHQSTIDLKNELKQCIGRLQEPTPSSGDPGEHDPASTHKSTRP
binding result [4]: binds

UUUUAUCUGAGUUGGAGGUGAAG (structured_RNA) [Lnczc3h7a-SL]
Kd [5]: 100 nM

AUGGCUAGCUGGAGCCACCCGCAGUUCG (structured_RNA) [28-mer]
Kd [6]: 900 nM

UAAAAGGAGAU (ssRNA) [pre-let-7 loop]
binding result [7]: binds

GUAUAGUUUAAAGAAUGGAUAACUAUAC (structured_RNA) [pre-let-7_modified]
Kd [8]: 180 nM | binding result [9]: no binding

GUAUAGUUUAAAAGGAGAUAACUAUAC (structured_RNA) [pre-let-7a-1@2 (pre-let-7)]
Kd ([10]; hairpin): 62 ± 44 nM | Kd [11]: 3200 ± 700 nM | binding result [12]: no binding | binding result [13]: no binding | binding result [14]: no binding | Kd [15]: 4000 ± 2000 nM | Kd [16]: 4000 ± 1000 nM

GCAGGUCGGAUUAAGCCAUAGUACGGGAAAAACUAUGCUACCUG (structured_RNA) [DENV-SL]
Kd [17]: 14 nM | Kd [18]: 420 nM

UUAGUGGCAGACAAAGGCAUCGAGGCAGCCGCAGAAGUUGUCUGCGAAGU (structured_RNA) [RNA_50_motif1&2]
Kd ([10]; hairpin with bulge): 3.5 nM
